Experimental findings from patent US20110070243A1 (published 2011) are described below.

Test [1] addresses T1, cyno CD79b (TAHO40) (cynomolgus monkey).
T1 construct: Target on BJAB-cyno CD79b cells (BJAB transfected with cyno CD79b) and on cynomolgus B cells; also called cynomolgus CD79b; PRO283627
T1 chain: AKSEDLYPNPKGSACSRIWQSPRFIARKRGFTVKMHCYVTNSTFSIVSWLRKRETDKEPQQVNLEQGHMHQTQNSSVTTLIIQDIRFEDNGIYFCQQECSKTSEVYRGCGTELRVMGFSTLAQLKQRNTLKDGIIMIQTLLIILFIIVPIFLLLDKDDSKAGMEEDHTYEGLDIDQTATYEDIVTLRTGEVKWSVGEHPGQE
Description: Scatchard analysis on BJAB-cyno CD79b cells.

Test [2] deals with T2, human CD79b (TAHO5) 21mer peptide (human).
T2 peptide: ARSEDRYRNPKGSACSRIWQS
Kind of test: peptide competition: antibody pre-incubated with the human 21mer peptide, then FACS staining of cells.

A further test concerns the target T3, rhesus CD79b (rhesus monkey, UniProt H9ZFT8 30-231).
T3 construct: whole, on cells; also called rhesus monkey CD79b
T3 sequence: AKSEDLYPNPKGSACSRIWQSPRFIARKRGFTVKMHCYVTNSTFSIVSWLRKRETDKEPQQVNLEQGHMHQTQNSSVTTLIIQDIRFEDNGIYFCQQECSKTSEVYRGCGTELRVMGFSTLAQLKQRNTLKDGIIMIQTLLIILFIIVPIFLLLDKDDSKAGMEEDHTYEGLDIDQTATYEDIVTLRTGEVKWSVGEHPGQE
Kind of test: staining of rhesus monkey B cells; method not detailed.

The target of test [3] is T1, cyno CD79b (TAHO40). Description: staining of cynomolgus monkey B cells; method not detailed.
For test [4], the target named is T4, cyno CD79b (TAHO40) 21mer peptide (cynomolgus monkey).
T4 construct: also called cyno CD79b (TAHO40) 20 mer peptides
T4 peptide: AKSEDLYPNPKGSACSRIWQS
Description: peptide competition: antibody pre-incubated with the cyno peptide, then FACS staining of BJAB cells.

Another test concerns the target T5, human CD79b (TAHO5) (human, UniProt P40259 29-229).
T5 construct: also called PRO36249; Igbeta
T5 sequence: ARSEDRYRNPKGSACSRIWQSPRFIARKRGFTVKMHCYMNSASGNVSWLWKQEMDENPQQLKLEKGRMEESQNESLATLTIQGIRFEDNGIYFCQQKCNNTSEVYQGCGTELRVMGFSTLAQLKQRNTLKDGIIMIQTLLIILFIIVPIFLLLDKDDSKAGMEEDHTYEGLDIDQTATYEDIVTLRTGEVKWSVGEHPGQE
Description: Scatchard analysis on BJAB-cyno CD79b cells (which also express human CD79b).

B1: anti-cyno-CD79b-10D10 (antibody, V domains shown)
VH: EVQLQESGPGLVKPSQSLSLTCTVTGYSITSDYAWNWIRQFPGNKLEWMGNIWYSGSTTYNPSLKSRISITRDTSKNQFFLQLNSVTSEDTATYYCSRMDFWGQGTTLTVSS
VL: DIVLTQSPPSLAVSLGQRATISCRASESVDSYGKTFMHWHQQKPGQPPKLLIYRVSNLESGIPARFSGSGSRTDFTLTINPVEADDVATYYCQQSNEDPFTFGGGTKLEIKR
notes: Murine hybridoma monoclonal antibody; also called 10D10.3; ATCC PTA-7715
Take B1: the affinity with cyno CD79b (TAHO40) [1], expressed as Kd, was 1 nM. In test [2], the binding result is “no binding (tested: antibody:peptide 1:10)”.

B2: anti-human-CD79b-2F2 (antibody, V domains shown)
VH: QVQLQQPGAELVRPGASVKLSCKASGYTFTSYWMNWVKQRPGQGLEWIGMIDPSDSETHYNHIFKDKATLTVDKSSSTAYLQLSSLTSEDSAVYYCARNLYLWGQGTSVTVSL
VL: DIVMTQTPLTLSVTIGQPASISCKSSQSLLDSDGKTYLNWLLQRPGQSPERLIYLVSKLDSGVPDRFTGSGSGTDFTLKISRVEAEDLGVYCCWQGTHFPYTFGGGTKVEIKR
notes: Murine hybridoma monoclonal antibody; also called 2F2.20.1; anti-human CD79b (TAHO5) (2F2)
Regarding B2, the binding result was “no binding” with rhesus CD79b, “no binding” in the test with cyno CD79b (TAHO40) [3] and “no binding (tested: antibody:peptide 1:10)” in test [4].

B3: anti-human CD79b (TAHO5) antibody SN8 (antibody, V domains shown)
VL: DIVLTQSPASLAVSLGQRATISCKASQSVDYDGDSFLNWYQQKPGQPPKLFIYAASNLESGIPARFSGSGSGTDFTLNIHPVEEEDAATYYCQQSNEDPLTFGAGTELELKR
VH: EVQLQQSGAELMKPGASVKISCKATGYTFSSYWIEWVKQRPGHGLEWIGEILPGGGDTNYNEIFKGKATFTADTSSNTAYMQLSSLTSEDSAVYYCTRRVPVYFDYWGQGTSVTVSS
notes: Murine monoclonal antibody, commercial (Biomeda, BD, Ancell) or from the Roswell Park hybridoma; also called anti-human CD79b (SN8)
Consider B3, for which the results for the binding result (in the test with rhesus CD79b; with cyno CD79b (TAHO40) [3]; in test [4]) were “no binding”, “no binding” and “no binding (tested: antibody:peptide 1:10)”, respectively. Besides, the Kd (commonly the free concentration of one partner at which half of the binding sites on the other are occupied at equilibrium, for simple one-to-one binding) with human CD79b (TAHO5) amounted to 0.5 nM.
